Reference: the nanobody polyreactivity screen of Harvey et al. (2022)

Experiment: yeast display, Sf9 membrane polyspecificity reagent, FACS + sequencing; frameworks hold sequencing errors
Summary of the method: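 After 36–48 hours of galactose induction, yeast (Saccharomyces cerevisiae BJ5465) displaying a synthetic nanobody library were stained at 4 °C for 1 hour with 10% biotinylated, detergent-solubilized Sf9 membrane reagent. Streptavidin microbeads enriched the stained cells before FACS sorting into low and high (top ~1%) gates on anti-HA and streptavidin fluorescence. Each clone's polyreactivity label reflects its gate of origin.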

Sequence | polyreactivity (PSR sort gate)
QVQLVESGGGLVQAGGSLRLSCAASGYIFGNYAMGWYRQAPGKERELVAAISKSGVTTYYADSVKGRFTISRDNAKNTVYLQMNSLKPEDTAVYYCIARSWRPINARYNEYDYWGQGTQVTVSS | low polyreactivity
QVQLVESGGGLVQAGGSLRLSCAASGYIFGPNAMGWYRQAPGKERELVAAISSRGDSTFYADSVKGRFTISRDNAKNTDYLQMNSLKPEDTAVYYCAAEEITQFYVGSYLDDYWGQGTQVTVSS | low polyreactivity
QVQLVESGGGLVQAGGSLRLSCAASGYIFGQYAMGWYRQAPGKERELVAAIRRSGGRTYYADSVKGRFTISRDNAKNTVYLQMNSLKPEDTAVYYCNKGPPQTSWRTTLFDYWGQGTQVTVSS | high polyreactivity
QVQLVESGGGLVQAGGSLRLSCAASGYIFGSYVMGWYRQAPGKERELVAAISRRGGSTYYADSVKGRFTISRDNAKNTVNLQMNSLKPEYTAVYYFSADYGQYAKYDYWGQGTQVTVSS | high polyreactivity
QVQLVESGGGLVQAGGSLRLSCAASGYIFGVYAMGWYRQAPGKERELVAAISYGVGSTYYADSVKGRFTISRDNAKNTVYLQMNSLKPEDNAVYYCAAEDTQVRWSPVRPLEDYWGQGTQVTVSS | low polyreactivity
QVQLVESGGGLVQAGGSLRLSCAASGYIFGWYTMGWYRQAPGKERELVAAISGGGRTYYADSVKGRFTISRDNAKNTVYLQMNSLKPEDTAVYYCAARVAQVAYPDGYWGQGTQVTVSS | high polyreactivity
QVQLVESGGGLVQAGGSLRLSCAASGYIFGYNAMGWYRQAPGKERELVATINSSDSTNYADSVKGRFTISRDNAKNTVYLQMNSLKPEDTAVYYCNKDHVRRSYPYDYWGQGTQVTVSS | low polyreactivity
QVQLVESGGGLVQAGGSLRLSCAASGYIFGYYAMGWYRQAPGKERELVAAIRSGGNTYYADSVKGRFTISRDNAKNTVYLQMNSLKPEDTAVYYCAKRYGRFSDYWGQGTQVTVSS | high polyreactivity
QVQLVESGGGLVQAGGSLRLSCAASGYIFGYYVMGWYRQARGKERELVAAISDSDITYYADSVKGRFTISRDNAKNTVSLQMNSLKPEDTAVYYCNADFGYWWDGRRYDYWGQGTQVTVSS | low polyreactivity
QVQLVESGGGLVQAGGSLRLSCAASGYIFHYNAMGWYRQAPGKEREFVAAISQGGGSTYYADSVKGRFTISRDNAKNTVYLQMNSLKPEDTAVYYCAADYRSGYREMDYWGQGTQVTVSS | low polyreactivity
QVQLVESGGGLVQAGGSLRLSCAASGYIFIGYAMGWYRQAPGKERELVATITSGGSTNYADSVKGRFTISRDNAKNTVYLQLHSLNPEDTAVDYCAAGRGRYFYSWRYLYAIFDYWGQGTQVTVSS | low polyreactivity
QVQLVESGGGLVQAGGSLRLSCAASGYIFINNAMGWYRQAPGKERELVAAISFNSGSTYYADSVKGRFTISRDNAKNTVYLQMNSLKPEDTAVYYCAADYEGWGYDYRGDYWGQGTQVTVSS | low polyreactivity
QVQLVESGGGLVQAGGSLRLSCAASGYIFIVNAMGWYRQAPGKERELVAAINSSGGNTYYADSVKGRFTISRDNAKNTVYLLMNSLKPEDTAVYYCAADQAKDISVEYDYWGQGTQVTVSS | low polyreactivity
QVQLVESGGGLVQAGGSLRLSCAASGYIFKYNTMGWYRQAPGKERELVASITWSGVRTYYADSVKGRFTISRDNAKNTVYLQMNSLKPEDTAVYYCNAAYRRSWDSDDYWGQGTQVTVSS | low polyreactivity
QVQLVESGGGLVQAGGSLRLSCAASGYIFKYYAMGWYRQAPGKERELVATINYSGGGTYYADSVKGRFTISRDNAKNTVYLQMNSLKPEDTAVYYCAAEHFFWGYDYWGQGTQVTVSS | high polyreactivity
QVQLVESGGGLVQAGGSLRLSCAASGYIFLAYAMGWYRQAPGKERELVADNTYADSVKGRFTISRDNAKNTVYLQMNSLKPEDPAVYYCNADEVYDEYSYDYWGQGTQVTVSS | low polyreactivity
QVQLVESGGGLVQAGGSLRLSCAASGYIFLRNAMGWYRQAPGKERELVAAIRRTGGSTYYADSVKGRFTISRDNAKHTVYLQMNSLKPEDTAVYYCAKRSYTGYESWGQGTQVTVSS | low polyreactivity
QVQLVESGGGLVQAGGSLRLSCAASGYIFLVYAMGWYRQAPGKERELVAAIDWSDTHTYYADSVKGRFTISRDNAKNTVYLHMNSLKPEDSAVYYCNADDYQYKTWYHLDYWGQGTQVTVSS | low polyreactivity
QVQLVESGGGLVQAGGSLRLSCAASGYIFLYNAMGWYRQAPGKERELVAAIRAIGGRTYYADSVKGRFTISRDNAKNTVYLQMNSLKPEDTAVYYCNARGQRRRSTGLRYIYDYWGQGTQVTVSS | high polyreactivity
QVQLVESGGGLVQAGGSLRLSCAASGYIFLYYTMGWYRQAPGKERELVAAITIGGGTYYADSVKGRFTISRDNAKNTVYLQMNSLKPEDTAVYYCNADYASYYRYSRPLEMNYWGQGTQVTVSS | low polyreactivity
QVQLVESGGGLVQAGGSLRLSCAASGYIFNVYAMGWYRQAPGKESELVAAISTSGGSTYYADSVKGRFSISRDNAKNTVYLQMNSLKPEDTAVYYCAAKSTLSRSHKSDYWGQGTQVTVSS | high polyreactivity
QVQLVESGGGLVQAGGSLRLSCAASGYIFNYYAMGWYRQAPGKERELVAAITSGDSTYADSVKGRFTISRDNAKNTVYLQMNSLKPEDTAVYYCAAEISILPFVTPDTIYGYWGQGTQVTVSS | low polyreactivity

Sequence | polyreactivity (PSR sort gate)
QVQLVESGGGLVQAGGSLRLSCAASGYIFNYYGMGWYRQAPGKDRELVATISRGASTNYADSVKGRFTISRDNARNTVYFQMNTLKPEDTAVYYCAYWGQRTQVTVSS | low polyreactivity
QVQLVESGGGLVQAGGSLRLSCAASGYIFPFYAMGWYRQAPGKQRELVAAITESGGSTYYADSVKGRFTISRDNAKNNVYLQMNSLKPEDTAVYYCAKEVVKHPRGKLDYWGQGTQVTLSS | low polyreactivity
QVQLVESGGGLVQAGGSLRLSCAASGYIFPRYAMGWYRQAPGKERELVAAISYSGGSTYYADSVKGRFTISRDYAKNTVYLQMNSLKPEDTAVYYCNAYFLSQYQSAYRDDYWGQGTQVTVSS | high polyreactivity
QVQLVESGGGLVQAGGSLRLSCAASGYIFPYNAMGWYRQAPGKERELVATITWTGGSTYYADSVKGRFTISRDNAKNSVYLQMNSLKPEDTAVYYCAADLSIRYDHEYGYWGKGTQVTVSS | low polyreactivity
QVQLVESGGGLVQAGGSLRLSCAASGYIFPYNVMGWSRQAPGKERELVAAITWRVVRTYYADSVKGRFTISRDNAKNTVYLQMNSLKPEDTAVYYCAALSRQSGDYWGQGTQVTVSS | high polyreactivity
QVQLVESGGGLVQAGGSLRLSCAASGYIFQRDAMGWYRTAPGKEREFVAAIRYSGGSTYYADSVKGRFTISRDNAKNTVYLQMNCLKPEDTAVYYCAADQRDPWRSAYGYYYWGQGTQVTVSS | high polyreactivity
QVQLVESGGGLVQAGGSLRLSCAASGYIFQVNAMGWYRQAPGKERELVASISCGGSTNYADSVKGRFTISRDNAKNTVYLQMNSLKPEDTAVYYCAAELGYPYLQYVYWSQYLYDYWGQGTQVTVSS | low polyreactivity
QVQLVESGGGLVQAGGSLRLSCAASGYIFRYNAMGWYRQAPGKEREFVASISQRGGSTYYADSVKGRFTISRDNAKNTVYLQMNSLKPEDTAVYYCAARLGYYSYEYNYWGQGTQVTVSS | high polyreactivity
QVQLVESGGGLVQAGGSLRLSCAASGYIFSGNAMGWYRQAPGKERELVAAITRSDVNTDYADSVKGRFTISRDNAKNTVYLQMNSLKPEDTAVYSCNTRVRASSVDYDEGDYWGQGTQVTVSS | low polyreactivity
QVQLVESGGGLVQAGGSLRLSCAASGYIFSLNAMGWYRQAPGKERELVAGIRKRGGSTYYADSVKGRFTISRDNAKNTVYLQMNSLKPEDTAVYYCAAQPALTYRFYYWGQGTQVTVSS | high polyreactivity
QVQLVESGGGLVQAGGSLRLSCAASGYIFTIYAMGWYRQAPAKEREFVAAITWSGGRTYYADSVKGRFTISRDTAKNTVYLQMNSLKPEDSAVDYGAARVANYLSQMYYWGQGTQVTVSS | high polyreactivity
QVQLVESGGGLVQAGGSLRLSCAASGYIFVFNTMGWYRQAPGKERELVASISWDAGTTYYADSVKGRFTISRDNAKNTVYLQMNSLKPEDTAVDYCNAGRIRSGYLDYWGQGTQVTVSS | low polyreactivity
QVQLVESGGGLVQAGGSLRLSCAASGYIFVRYAMGWYRQAPGKERELVAAINSSGGRTYYADSVKGRFTISRDNAKNTVYLQLNSLKPEDTAVYYCAAYGYYRSGYRALEGYWGQGTQVTVAS | high polyreactivity
QVQLVESGGGLVQAGGSLRLSCAASGYIFVRYAMGWYRQAPGKERELVAAINSSRGRTYYADSVKGRFTISRDNAKNTVSLQMNSLKPEDTAVYYCGAYGYYRSGYRALEGYWGQGTQVTVSS | high polyreactivity
QVQLVESGGGLVQAGGSLRLSCAASGYIFVYYAMGWYRQAPGKEREMVAAISSSGDTTYYADSVKGRFTISRDNAKNTVYLQMNSLKPEDTAVYYCAARVRGYSHASNYYWGQGTQVTVSS | high polyreactivity
QVQLVESGGGLVQAGGSLRLSCAASGYIFVYYVMGWYRQAPGKERELVTAIDGNGVSTYYADSVKGRFSISRDNAKYSVYLQMNSLKPDDTAVYYCAADYLYHQTSRGKYYSWGQGTQVTVSS | low polyreactivity
QVQLVESGGGLVQAGGSLRLSCAASGYIFWGNAMGWYRQAPGKERELVAAISYIGGSTYYADSVKGRFTISRDNAKNTVYLQMNSLKPEDTAVYYCAKRVLHQPYYHGVSGRRYDYWGQGTQVTVSS | high polyreactivity
QVQLVESGGGLVQAGGSLRLSCAASGYIFWSYAMGWYRQAPGKERELVAGITASGGSTYYADSVKGRFTISRDNAKNTVYLQMNSLKPEDTAVYYCAAEAYTQYWIYYYWGQCTQVTVSS | high polyreactivity
QVQLVESGGGLVQAGGSLRLSCAASGYIFYAYAMGWSRQAPGKERELVAAISSGGGRTYYADSVKGRFTISRDNAKNTVYLQMNSLKPEDTAVYYCAARRRDRGEYYYWGQGTQVTVSS | high polyreactivity
QVQLVESGGGLVQAGGSLRLSCAASGYIFYFNDMGWYRQAPGKERELVADITYSGDSTYYADSVKGRFTISRDNAKNTVYLQMNSLKPEDTAVYYCAARRGWWYRGDDYWGQGTQVNVSS | low polyreactivity
QVQLVESGGGLVQAGGSLRLSCAASGYIFYQYAMGWDRQAPGKERELVAGINWRGGSTYADSVKGRFTISRDNAKITVYLQMNSLKPEDTEVYYCNANQYRQDVFRRPSYYAYYYWGQGTQVTVSS | high polyreactivity
